Results on 1 protein are retold here after US8809010B2, “Method for prophylactic treatment of alzheimer's disease using inhibitors of glutaminyl cyclase and glutamate cyclases” (Probiodrug AG, priority 2003, dated 2014).

Substrate in the series: NC(=O)CCC(N)C(=O)Nc1ccc2ccccc2c1
The series can be described thus: Continuous spectrophotometric QC assay (glutamate dehydrogenase coupled), substrate kinetics.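 Note: initial rates read on a microplate reader at 30 °C, with enzyme activity quantified against an ammonia calibration curve under the same assay conditions.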 In kind it is biochemical. Conditions: other: Human QC.

The mark [1] stands for this setting: 0.05M Tris-HCl, pH 8.0, 0.5 M KCl, pH 8.0.

Description: The initial velocities were evaluated and the enzymatic activity was determined from a standard curve of ammonia under assay conditions. All samples were measured at 30° C., using either the [sequence]luor Plus or the Sunrise (both from TECAN) reader for microplates. Kinetic data was evaluated using GraFit software.

B1: human QC (Homo sapiens) (protein)
chain: VSPSASAWPEEKNYHQPAILNSSALRQIAEGTSISEMWQNDLQPLLIERYPGSPGSYAARQHIMQRIQRLQADWVLEIDTFLSQTPYGYRSFSNIISTLNPTAKRHLVLACHYDSKYFSHWNNRVFVGATDSAVPCAMMLELARALDKKLLSLKTVSDSKPDLSLQLIFFDGEEAFLHWSPQDSLYGSRHLAAKMASTPHPPGARGTSQLHGMDLLVLLDLIGAPNPTFPNFFPNSARWFERLQAIEHELHELGLLKDHSLEGRYFQNYSYGGVIQDDHIPFLRRGVPVLHLIPSPFPEVWHTMDDNEENLDESTIDNLNKILQVFVLEYLHL
notes: The cDNA of the mature QC starting with codon 38 was fused in frame with the plasmid encoded 6× histidine tag; 6xHis; made in house; host or cells: Pichia pastoris X33 (pPICZαB, secreted); also E. coli M15 (pQE-31)
The term Km denotes the substrate concentration at which the rate is half of its maximum. One may read the kcat as the number of substrate molecules converted per active site and unit of time at saturation. In general, kcat/Km refers to the second-order rate constant that governs catalysis at low substrate concentration. Turning to B1, where the note is “0.05M Tris-HCl, pH 8.0”, the Km was 76 ± 4 µM, the kcat is 21.7 ± 0.5 s⁻¹ and the kcat/Km worked out at 285000 ± 8000 M⁻¹ s⁻¹. Under setting [1], the Km worked out at 63 ± 3 µM, the turnover number (kcat) worked out at 20.0 ± 0.4 s⁻¹ and the kcat/Km is 318000 ± 9000 M⁻¹ s⁻¹. For the same protein, for the setting “pH 8.8”, the Km was found to be 70 ± 3 µM and the kcat worked out at 20.6 ± 0.5 s⁻¹.
